Source: doi:10.1101/671156
Values belong to the substance of their own block, whether it stands above or below them.

Assays:
[1] = molecular target: biotin-labeled YxxQ diheptad peptide (human) (UniProt Q96PK6); assay: ELISA; conditions: domain or fragment
[2] = molecular target: CoAA YxxQ repeats, 307-545 (UniProt Q96PK6); assay: plate-coated GST-YxxQ, biotin peptide, streptavidin-HRP; conditions: reference: unphosphorylated CTD peptide
Sequence of CoAA YxxQ repeats, 307-545 (Q96PK6 whole entry, looked up, tested part not stated): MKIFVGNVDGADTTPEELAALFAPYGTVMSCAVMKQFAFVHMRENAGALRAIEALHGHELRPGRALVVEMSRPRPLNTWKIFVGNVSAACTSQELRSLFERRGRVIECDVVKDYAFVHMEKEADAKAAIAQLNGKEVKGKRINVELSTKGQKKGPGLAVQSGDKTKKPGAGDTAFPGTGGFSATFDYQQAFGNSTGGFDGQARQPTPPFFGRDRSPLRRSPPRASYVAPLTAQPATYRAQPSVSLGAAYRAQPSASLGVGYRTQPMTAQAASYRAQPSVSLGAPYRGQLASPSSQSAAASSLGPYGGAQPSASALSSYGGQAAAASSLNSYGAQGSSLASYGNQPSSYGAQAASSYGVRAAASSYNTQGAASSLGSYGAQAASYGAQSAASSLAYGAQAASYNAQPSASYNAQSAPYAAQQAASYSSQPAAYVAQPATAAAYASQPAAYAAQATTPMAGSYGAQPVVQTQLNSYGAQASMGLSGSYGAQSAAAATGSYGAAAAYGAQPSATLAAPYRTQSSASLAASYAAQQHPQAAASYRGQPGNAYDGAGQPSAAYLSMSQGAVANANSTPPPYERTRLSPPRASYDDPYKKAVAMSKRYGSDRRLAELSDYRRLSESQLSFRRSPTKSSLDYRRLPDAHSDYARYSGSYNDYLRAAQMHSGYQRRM

Sequence of GST-CTD-AA (not phosphorylated, coated on plate) (P04050 whole entry, looked up): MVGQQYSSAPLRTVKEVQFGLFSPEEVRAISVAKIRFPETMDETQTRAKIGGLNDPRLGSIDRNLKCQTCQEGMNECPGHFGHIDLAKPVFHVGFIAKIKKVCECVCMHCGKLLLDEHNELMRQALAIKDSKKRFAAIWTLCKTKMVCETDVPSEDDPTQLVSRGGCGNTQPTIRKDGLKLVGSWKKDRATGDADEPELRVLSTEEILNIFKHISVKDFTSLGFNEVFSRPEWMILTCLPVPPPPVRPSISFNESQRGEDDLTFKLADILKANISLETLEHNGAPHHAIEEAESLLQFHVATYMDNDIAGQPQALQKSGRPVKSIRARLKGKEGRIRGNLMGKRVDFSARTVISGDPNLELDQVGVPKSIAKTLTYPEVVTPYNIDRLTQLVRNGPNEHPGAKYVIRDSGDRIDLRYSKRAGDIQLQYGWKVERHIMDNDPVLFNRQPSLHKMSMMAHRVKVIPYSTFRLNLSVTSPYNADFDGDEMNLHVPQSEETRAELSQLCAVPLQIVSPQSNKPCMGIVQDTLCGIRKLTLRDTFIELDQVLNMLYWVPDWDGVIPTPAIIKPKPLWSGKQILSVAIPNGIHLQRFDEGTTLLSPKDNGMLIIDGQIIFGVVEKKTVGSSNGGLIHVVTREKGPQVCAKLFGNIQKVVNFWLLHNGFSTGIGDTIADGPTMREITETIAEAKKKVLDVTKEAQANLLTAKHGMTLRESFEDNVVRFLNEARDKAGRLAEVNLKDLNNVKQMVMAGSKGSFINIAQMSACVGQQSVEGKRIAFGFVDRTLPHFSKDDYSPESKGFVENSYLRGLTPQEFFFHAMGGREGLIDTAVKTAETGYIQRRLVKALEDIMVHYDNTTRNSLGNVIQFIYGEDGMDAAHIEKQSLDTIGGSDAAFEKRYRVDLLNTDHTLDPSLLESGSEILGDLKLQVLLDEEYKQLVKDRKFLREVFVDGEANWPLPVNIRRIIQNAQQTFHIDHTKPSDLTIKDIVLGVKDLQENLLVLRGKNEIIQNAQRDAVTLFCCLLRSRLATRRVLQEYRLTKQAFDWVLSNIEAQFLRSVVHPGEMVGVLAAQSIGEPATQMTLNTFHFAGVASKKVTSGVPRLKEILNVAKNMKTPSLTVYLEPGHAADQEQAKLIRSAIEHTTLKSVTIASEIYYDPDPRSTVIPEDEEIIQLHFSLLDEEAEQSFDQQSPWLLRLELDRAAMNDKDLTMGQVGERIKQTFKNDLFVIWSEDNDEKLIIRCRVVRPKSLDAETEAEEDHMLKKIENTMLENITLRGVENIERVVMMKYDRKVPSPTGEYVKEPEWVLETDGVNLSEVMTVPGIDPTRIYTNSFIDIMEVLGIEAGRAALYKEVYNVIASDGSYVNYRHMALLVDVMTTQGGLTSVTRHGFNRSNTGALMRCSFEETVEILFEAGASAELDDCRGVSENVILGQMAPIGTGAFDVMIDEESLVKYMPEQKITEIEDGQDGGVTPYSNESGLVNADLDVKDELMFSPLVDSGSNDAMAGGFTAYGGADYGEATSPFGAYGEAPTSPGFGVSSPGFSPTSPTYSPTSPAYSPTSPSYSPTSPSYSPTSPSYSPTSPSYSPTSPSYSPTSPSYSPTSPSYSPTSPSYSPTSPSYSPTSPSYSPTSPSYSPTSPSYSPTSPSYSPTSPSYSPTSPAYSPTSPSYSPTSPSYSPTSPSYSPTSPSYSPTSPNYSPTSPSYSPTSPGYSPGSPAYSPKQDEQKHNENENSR

EC50 [1]: 2.43 µM
Substance: GST-CTD-AA (not phosphorylated, coated on plate) (from UniProt P04050)

EC50 ([2]; sites S2): stronger; reference 1066
Substance: RNA polymerase II largest subunit CTD pSer2 CTD peptide

EC50 ([2]; sites S5): stronger; reference 1066
Substance: RNA polymerase II largest subunit CTD pSer5 CTD peptide
